The test addresses Xatr-XatripΔN222-FLAG complex (Xenopus laevis). Briefly: cell-based or functional assay.

The source of these data is US20090098111A1.

Xatr-XatripΔN222-FLAG complex (Xenopus laevis), sequence (Q5EGL8 whole entry, stated change not applied, one chain of several): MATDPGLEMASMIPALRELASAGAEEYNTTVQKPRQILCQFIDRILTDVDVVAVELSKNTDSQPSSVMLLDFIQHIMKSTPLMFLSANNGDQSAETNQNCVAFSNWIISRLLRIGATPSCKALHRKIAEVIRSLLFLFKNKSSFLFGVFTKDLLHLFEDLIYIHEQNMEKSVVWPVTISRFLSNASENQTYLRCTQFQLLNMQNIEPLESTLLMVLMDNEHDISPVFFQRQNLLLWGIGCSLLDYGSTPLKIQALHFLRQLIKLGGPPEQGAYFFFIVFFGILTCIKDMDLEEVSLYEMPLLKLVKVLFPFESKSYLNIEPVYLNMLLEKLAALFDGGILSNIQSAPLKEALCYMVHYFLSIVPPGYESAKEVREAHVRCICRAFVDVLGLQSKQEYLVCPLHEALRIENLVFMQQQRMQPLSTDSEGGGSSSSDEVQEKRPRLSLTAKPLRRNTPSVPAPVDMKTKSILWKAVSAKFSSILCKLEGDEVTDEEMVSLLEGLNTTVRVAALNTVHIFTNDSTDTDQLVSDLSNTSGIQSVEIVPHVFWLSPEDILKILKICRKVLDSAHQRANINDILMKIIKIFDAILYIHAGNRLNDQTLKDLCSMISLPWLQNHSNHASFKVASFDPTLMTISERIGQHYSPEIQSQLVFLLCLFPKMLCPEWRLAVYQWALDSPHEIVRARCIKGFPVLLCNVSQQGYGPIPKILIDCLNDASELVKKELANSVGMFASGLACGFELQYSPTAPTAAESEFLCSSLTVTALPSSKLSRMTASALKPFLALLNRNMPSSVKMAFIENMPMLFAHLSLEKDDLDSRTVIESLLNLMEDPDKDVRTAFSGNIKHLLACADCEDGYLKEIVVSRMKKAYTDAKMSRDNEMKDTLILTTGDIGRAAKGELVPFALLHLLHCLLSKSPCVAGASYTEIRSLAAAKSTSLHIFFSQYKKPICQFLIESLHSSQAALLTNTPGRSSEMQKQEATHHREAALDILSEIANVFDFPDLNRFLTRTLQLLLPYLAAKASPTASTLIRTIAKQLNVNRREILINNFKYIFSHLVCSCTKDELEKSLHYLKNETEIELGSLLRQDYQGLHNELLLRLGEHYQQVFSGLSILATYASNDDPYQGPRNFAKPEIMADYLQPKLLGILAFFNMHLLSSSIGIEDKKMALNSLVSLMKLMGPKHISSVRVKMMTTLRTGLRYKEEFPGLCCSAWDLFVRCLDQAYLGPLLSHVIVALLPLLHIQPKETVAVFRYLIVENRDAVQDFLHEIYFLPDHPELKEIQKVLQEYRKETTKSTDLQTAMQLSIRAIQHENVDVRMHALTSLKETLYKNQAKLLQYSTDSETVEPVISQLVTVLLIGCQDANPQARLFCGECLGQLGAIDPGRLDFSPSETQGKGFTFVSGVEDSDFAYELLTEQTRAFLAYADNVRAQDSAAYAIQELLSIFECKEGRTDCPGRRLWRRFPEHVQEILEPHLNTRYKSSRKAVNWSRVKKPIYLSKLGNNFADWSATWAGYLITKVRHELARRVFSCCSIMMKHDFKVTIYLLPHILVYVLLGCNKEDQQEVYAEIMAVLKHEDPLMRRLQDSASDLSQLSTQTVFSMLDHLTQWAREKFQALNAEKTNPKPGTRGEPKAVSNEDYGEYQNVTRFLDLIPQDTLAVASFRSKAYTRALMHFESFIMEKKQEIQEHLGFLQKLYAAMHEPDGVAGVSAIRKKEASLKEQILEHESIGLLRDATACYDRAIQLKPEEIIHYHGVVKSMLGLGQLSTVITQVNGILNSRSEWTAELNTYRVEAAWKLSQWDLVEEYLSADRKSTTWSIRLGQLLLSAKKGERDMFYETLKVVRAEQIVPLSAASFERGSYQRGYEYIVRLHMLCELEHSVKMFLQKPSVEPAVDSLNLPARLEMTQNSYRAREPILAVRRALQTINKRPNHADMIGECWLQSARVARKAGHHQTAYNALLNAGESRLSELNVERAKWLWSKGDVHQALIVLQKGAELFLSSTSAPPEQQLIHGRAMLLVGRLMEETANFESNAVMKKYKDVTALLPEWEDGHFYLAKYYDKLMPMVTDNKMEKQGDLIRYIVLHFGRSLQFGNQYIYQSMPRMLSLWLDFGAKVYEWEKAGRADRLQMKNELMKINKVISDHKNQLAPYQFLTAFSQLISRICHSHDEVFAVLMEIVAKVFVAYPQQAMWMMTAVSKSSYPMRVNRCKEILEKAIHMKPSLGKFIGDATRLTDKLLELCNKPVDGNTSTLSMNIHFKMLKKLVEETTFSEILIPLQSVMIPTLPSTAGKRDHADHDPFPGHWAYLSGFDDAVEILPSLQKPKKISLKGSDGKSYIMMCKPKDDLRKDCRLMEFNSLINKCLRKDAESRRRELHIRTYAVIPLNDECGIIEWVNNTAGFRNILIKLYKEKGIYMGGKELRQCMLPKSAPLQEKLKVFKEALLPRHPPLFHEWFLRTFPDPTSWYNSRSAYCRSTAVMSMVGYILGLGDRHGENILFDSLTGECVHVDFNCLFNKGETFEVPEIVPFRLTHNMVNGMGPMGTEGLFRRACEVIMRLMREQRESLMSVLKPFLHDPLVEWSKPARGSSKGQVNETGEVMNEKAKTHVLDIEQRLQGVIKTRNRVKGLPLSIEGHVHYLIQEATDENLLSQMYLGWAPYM

In turn, “His6-XtopBP1 (full-length) (from UniProt Q800K6 1-1513)” registered a half-maximal induction of kinase activity of 10 to 15 µg/mL.
